This passage reports Kd results from patent US20120108455A1.

For assay [1], the target named is FLAG-tag marker (Alpha Diagnostic Cat # FLAG15-R). The assay can be described thus: ELISA, 25% human serum in KRB, pH 6.0.
Assay [2] shares this target. As to the kind of experiment: ELISA, 25% human serum in KRB, pH 7.4.
In assay [3] the target is Myc-tag marker (Alpha Diagnostic Cat # Myc15-R). The assay can be described thus: ELISA, 25% human serum in KRB, pH 6.0.
For assay [4], the target named is Multifusion-tagged marker (Alpha Diagnostic Cat # MFPM20-C). The assay can be described thus: ELISA, 25% human serum in KRB, pH 7.4.
Assay [5] concerns the target Myc-tag marker (Alpha Diagnostic Cat # Myc15-R). The assay can be described thus: ELISA, 25% human serum in KRB, pH 7.4.

Take anti-FLAG antibody (Abcam, ab1238): the dissociation constant (Kd) was determined as 0.135 µg/mL in assay [1] and 0.224 µg/mL in assay [2].

As to anti-myc antibody (Abcam, #ab1326), the Kd came to 0.00773 µg/mL in assay [3], 0.02 µg/mL in assay [4] and 0.00798 µg/mL in assay [5].
